{"source": "paper PMC7584627", "target": "LuS-N71-SpyTag (Aquifex aeolicus)", "experiment": "SDS-PAGE of the covalent conjugate, band intensities", "data": [{"substance": "SARS-CoV-2 spike-SpyCatcher", "values": [{"measurement": "percent of nanoparticle subunit conjugated", "value": 91, "unit": "%"}]}]}
